According to paper PMC7849368 (Genes & Development, 2021):

Biological target: T1, Esc2, purified, as used in microscale thermophoresis (budding yeast, UniProt Q06340 1-456)
T1 sequence: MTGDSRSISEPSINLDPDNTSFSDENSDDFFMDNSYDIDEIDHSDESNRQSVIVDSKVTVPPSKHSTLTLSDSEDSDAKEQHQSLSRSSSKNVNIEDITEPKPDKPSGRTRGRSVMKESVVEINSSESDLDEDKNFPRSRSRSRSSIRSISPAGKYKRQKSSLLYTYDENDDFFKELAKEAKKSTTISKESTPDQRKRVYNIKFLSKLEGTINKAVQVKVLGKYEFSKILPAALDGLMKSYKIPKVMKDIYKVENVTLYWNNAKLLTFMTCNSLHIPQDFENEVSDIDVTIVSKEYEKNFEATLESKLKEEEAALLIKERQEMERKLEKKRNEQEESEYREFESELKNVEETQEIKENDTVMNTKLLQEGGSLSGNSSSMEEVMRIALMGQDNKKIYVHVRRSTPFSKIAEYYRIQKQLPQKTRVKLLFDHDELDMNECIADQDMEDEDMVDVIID
Assay: MST

B1: Ubc9, purified (enzyme)
chain: MSSLCLQRLQEERKKWRKDHPFGFYAKPVKKADGSMDLQKWEAGIPGKEGTNWAGGVYPITVEYPNEYPSKPPKVKFPAGFYHPNVYPSGTICLSILNEDQDWRPAITLKQIVLGVQDLLDSPNPNSPAQEPAWRSFSRNKAEYDKKVLLQAKQYSK
modifications: RED-tris-NTA dye on the His tag (MST only)
Kd: 372 nM
